Data taken from US20230416333A1 (SHATTUCK LABS, published 2023).

Assays:
[1] = target: T1, CD19 expressed on the cell surface (UniProt P15391 20-556); assay: flow cytometry on HEK293-CD19 cells, anti-Fc detection
T1 construct: whole, on cells; also called HEK293-CD19 cells; CD19 on Daudi cells
T1 sequence (looked up): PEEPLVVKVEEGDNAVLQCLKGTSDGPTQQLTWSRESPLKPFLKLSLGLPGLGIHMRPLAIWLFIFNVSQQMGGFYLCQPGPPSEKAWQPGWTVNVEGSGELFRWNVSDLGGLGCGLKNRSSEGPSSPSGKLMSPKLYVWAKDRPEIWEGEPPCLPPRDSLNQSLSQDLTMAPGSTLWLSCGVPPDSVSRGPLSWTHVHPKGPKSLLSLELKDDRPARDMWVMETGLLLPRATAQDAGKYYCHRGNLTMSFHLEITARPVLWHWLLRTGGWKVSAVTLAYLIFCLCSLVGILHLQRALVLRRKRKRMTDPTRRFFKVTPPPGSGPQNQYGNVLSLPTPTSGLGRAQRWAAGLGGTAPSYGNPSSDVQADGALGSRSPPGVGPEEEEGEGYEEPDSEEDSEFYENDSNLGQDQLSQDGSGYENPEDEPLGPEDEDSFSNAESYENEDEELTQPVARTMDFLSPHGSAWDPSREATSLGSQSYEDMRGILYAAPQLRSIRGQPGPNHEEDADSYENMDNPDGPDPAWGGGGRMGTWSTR

[2] = target: T1, CD19 expressed on the cell surface; assay: flow cytometry on Daudi cells; Daudi cells (CD19+), flow cytometry
[3] = target: T2, recombinant CD19-His protein (human, UniProt P15391 20-291); assay: Octet (ForteBio) BLI, recombinant CD19-His immobilized on biosensor
T2 construct: Immobilized on the Octet biosensor; also called Human CD19
T2 sequence (looked up): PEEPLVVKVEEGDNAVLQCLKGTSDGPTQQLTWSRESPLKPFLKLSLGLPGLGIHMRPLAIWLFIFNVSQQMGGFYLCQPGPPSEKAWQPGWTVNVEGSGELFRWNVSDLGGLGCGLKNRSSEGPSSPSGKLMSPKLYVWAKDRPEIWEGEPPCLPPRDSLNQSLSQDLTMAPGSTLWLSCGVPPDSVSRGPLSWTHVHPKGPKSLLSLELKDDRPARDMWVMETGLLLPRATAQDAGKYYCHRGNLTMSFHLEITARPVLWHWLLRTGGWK
Source text: A heterodimer lacking CD19scFv was used as a negative control.

- EC50 [1]: 0.89 nM
- EC50 [2]: 5 nM
- Kd [3]: 13.8 nM
B1: BTN2A1/3A1-Fc-CD19scFv GADLEN protein (heterodimer with charged polarized linkers) (Fc fusion)
chain 1: QFIVVGPTDPILATVGENTTLRCHLSPEKNAEDMEVRWFRSQFSPAVFVYKGGRERTEEQMEEYRGRTTFVSKDISRGSVALVIHNITAQENGTYRCYFQEGRSYDEAILHLVVAGLGSKPLISMRGHEDGGIRLECISRGWYPKPLTVWRDPYGGVAPALKEVSMPDADGLFMVTTAVIIRDKSVRNMSCSINNTLLGQKKESVIFIPESFMPSVSPCAGSGSRKGGKRGSKYGPPCPPCPAPEFLGGPSVFLFPPKPKDQLMISRTPEVTCVVVDVSQEDPEVQFNWYVDGVEVHNAKTKPREEQFNSTYRVVSVLTVLHQDWLSGKEYKCKVSSKGLPSSIEKTISNATGQPREPQVYTLPPSQEEMTKNQVSLTCLVKGFYPSDIAVEWESNGQPENNYKTTPPVLDSDGSFFLYSRLTVDKSRWQEGNVFSCSVLHEALHNHYTQKSLSLSLGKDEGGEDGSDIQMTQTTSSLSASLGDRVTISCRASQDISKYLNWYQQKPDGTVKLLIYHTSRLHSGVPSRFSGSGSGTDYSLTISNLEQEDIATYFCQQGNTLPYTFGGGTKLEITGGGSGGGSGGGSEVKLQESGPGLVAPSQSLSVTCTVSGVSLPDYGVSWIRQPPRKGLEWLGVIWGSETTYYNSALKSRLTIIKDNSKSQVFLKMNSLQTDDTAIYYCAKHYYYGGSYAMDYWGQGTSVTVSS
chain 2: not shown
notes: The residue ranges were counted from the printed parts; also called BTN2A1/3A1-Fc-CD19scFv heterodimeric protein; human BTN2A1/3A1-Fc-CD19scFv GADLEN protein
